Reference: publication PMC8612531 (Science Advances, 2021)
Numbering of substitutions follows the chain as printed. Numbers in names are those of the source.

B1: XccBphP R525E-R527E full-length variant, apoprotein (natural protein)
chain: STATNPLDLDVCAREPIHIPGLIQPYGVLLVIDPADGRIVQASTTAADLLGVPMAALLGMPYTQVLTLPEAQPFAVDDQPQHLMHAEVRFPQRATPPASAWVAAWHLYPQQWLVEMEPRDARLLDVTLREAMPLLRSVERDPGIAEAAVRVAKGLRSLIGFDRVMIYRFDEEWNGDIIAEARKPELEAYLGLHYPASDIPAQARALYLRNRVRQIADVGYQPSPIQPTVHPQLGTPVDLSDVSLRSVSPVHLEYLANMGVTATLVASIVVNDALWGLISCHHYSPHFTNHAMRDVTDAVARTLAGRIGALQAVARARLESVLLTVREKLITDFNDAEHMTVELLDDMAPDLMDVVDADGVAIFHGNDISRHGTTPDVAALRRIRDHIESEHHEALREDAVGALHVDAIGEVFPELADLAPLAAGFIFVPLMPQSRSALLWTRREQIQQIKWAGNPQLAKLEDIPNSRLSPRKSFDLWQQTVRGRARRWSPLHLESARSLRVLIELMERKRFQQDFTLLEASLSELEDGVAIIERGTANAAHRLLFVNTAFADVCGSDVAELIGRELQTLYASDAPRANVELLQDALRNGRAAYVTLPLQVSDGAPVYRQFHLEPLPSPSGVTAHWLLQLRDPE
B2: XccBphP wild-type full-length bacteriophytochrome, apoprotein (natural protein)
chain: B1 chain with E524R, E526R
B3: XccBphP G454A variant, apoprotein (natural protein)
chain: B1 chain with G453A, E524R, E526R
B4: XccBphP G454E full-length variant, holoprotein (biliverdin-bound) (natural protein)
chain: B1 chain with G453E, E524R, E526R
modifications: biliverdin IXα (BV) covalently bound to Cys13 (thioether linkage)
B5: XccBphP F512P variant, apoprotein (natural protein)
chain: B1 chain with F511P, E524R, E526R
B6: XccBphP W452A-G454E variant, apoprotein (natural protein)
chain: B1 chain with W451A, G453E, E524R, E526R
B7: XccBphP G454A variant, holoprotein (biliverdin-bound) (natural protein)
chain: B1 chain with G453A, E524R, E526R
modifications: biliverdin IXα (BV) covalently bound to Cys13 (thioether linkage)
B8: XccBphP W478A variant, apoprotein (natural protein)
chain: B1 chain with W477A, E524R, E526R
B9: XccBphP G454E full-length variant, apoprotein (natural protein)
chain: B1 chain with G453E, E524R, E526R
B10: XccBphP A453E variant, apoprotein (natural protein)
chain: B1 chain with A452E, E524R, E526R

Legend:
A0A0H2 = assay: SEC-MALS
SEC-MALS = molecular target: the molecule itself; assay: SEC-MALS
crystal structure = molecular target: the molecule itself; assay: crystal structure
SEC = molecular target: the molecule itself; assay: SEC

| Protein | stoichiometry N (SEC-MALS) | other results |
| --- | --- | --- |
| B1 | 2 | percent monomer (main peak) (A0A0H2): Monomer (~85%); percent dimer (secondary peak) (SEC-MALS): ~15% |
| B2 | 2 | – |
| B3 | 2 | – |
| B4 | – | binding result (crystal structure): binds |
| B5 | 2 | – |
| B6 | 2 | – |
| B7 | – | binding result (SEC): binds |
| B8 | 2 | – |
| B9 | 2 | – |
| B10 | 2 | – |
